# Like-named read-outs stand apart in the source and are kept apart here.
# T1: Human T cell receptor on human primary T cells (human, UniProt P01848 1-140; P01850 1-176)
# T1 TCR alpha (looked up): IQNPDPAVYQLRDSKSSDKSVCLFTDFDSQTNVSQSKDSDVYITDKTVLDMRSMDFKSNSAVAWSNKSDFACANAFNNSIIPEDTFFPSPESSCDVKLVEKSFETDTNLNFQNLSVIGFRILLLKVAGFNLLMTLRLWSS
# T1 TCR beta (looked up): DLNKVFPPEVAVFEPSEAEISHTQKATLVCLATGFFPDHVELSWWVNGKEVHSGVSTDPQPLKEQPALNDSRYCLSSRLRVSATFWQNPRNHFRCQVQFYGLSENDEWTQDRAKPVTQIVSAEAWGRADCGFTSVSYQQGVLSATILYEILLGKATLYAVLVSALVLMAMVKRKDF
# T2: Cynomolgus TCR(AEA41865/AEA41866)-zipper protein (cynomolgus monkey)
# T2 construct: also called cyTCR-zipper protein; cynoTCR zipper
# T2 TCR alpha: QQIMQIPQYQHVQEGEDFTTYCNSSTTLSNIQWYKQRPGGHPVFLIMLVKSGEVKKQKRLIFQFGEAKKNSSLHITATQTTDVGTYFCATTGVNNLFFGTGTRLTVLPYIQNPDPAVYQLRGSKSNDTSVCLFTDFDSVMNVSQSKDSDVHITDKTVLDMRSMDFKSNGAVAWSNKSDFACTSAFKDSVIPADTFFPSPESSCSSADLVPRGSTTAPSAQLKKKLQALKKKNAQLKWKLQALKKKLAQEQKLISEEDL
# T2 TCR beta: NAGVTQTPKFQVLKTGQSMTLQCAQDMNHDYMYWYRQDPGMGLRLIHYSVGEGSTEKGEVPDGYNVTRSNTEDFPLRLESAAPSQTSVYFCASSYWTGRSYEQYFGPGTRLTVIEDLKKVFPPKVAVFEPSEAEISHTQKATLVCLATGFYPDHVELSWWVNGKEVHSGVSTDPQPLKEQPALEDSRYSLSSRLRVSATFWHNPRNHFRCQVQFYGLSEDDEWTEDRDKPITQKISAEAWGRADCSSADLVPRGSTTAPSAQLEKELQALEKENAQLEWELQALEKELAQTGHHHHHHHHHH
# Columns and labels:
# [1] = biological target: Cynomolgus T cell receptor on cynomolgus primary T cells (cynomolgus monkey); experiment: cell-based or functional assay; as to % Lysis, T cell mediated MOLM-13 cell killing, cynomolgus primary T cells, E:T 10:1: test concentration or dose not given here
# [2] = biological target: T1, Human T cell receptor on human primary …; experiment: cell-based or functional assay
# [3] = biological target: T2, Cynomolgus …; experiment: SPR ProteOn off-rate screen
# From the text: (§1) Unique ISVD clones, i.e. clones with a unique sequence, were subsequently selected and screened to determine their off-rate. To this purpose, the ISVD containing periplasmic extracts were screened on huTCR-zipper and cyTCR-zipper protein by SPR on a ProteOn XPR36 instrument. The zipper proteins were immobilized on a GLC sensor chip (between 4300 and 5100RU) via amine coupling chemistry, using EDC/sulfo-NHS for activation of the carboxyl groups on the chip surface (running buffer: HBS-EP+, pH7.4). Periplasmic extracts were injected at 1/10 dilution for 2 min (at a flow rate of 45 μL/min) and dissociation was followed for 900 s. A pulse of 100 s of 3 M MgCl2 at 45 μL/min was used for regeneration. […] Processed sensorgrams were fitted with the Langmuir model (1:1 interaction) using ProteOn Manager 3.1.0 (Version 3.1.0.6) software.
# [4] = biological target: T2, Cynomolgus …; experiment: SPR ProteOn off-rate screen
# From the text: as §1
# For % Lysis, T cell mediated MOLM-13 cell killing, human primary T cells, E:T 10:1 in this document: test concentration or dose not given here.
koff [4],Binder,also measured
,T017000628 (bispecific antibody) DVQLVESGGGVVQPGGSLRLSCVASYDVHKINFYGWYRQAPGKEREKVAHISIGDQTDYADSAKGRFTISRDESKNTVYLQMNSLRPEDTALYYCRALSKIWPYDYWGQGTLVTVSSGGGGSGGGGSGGGGSGGGGSGGGGSGGGGSGGGGSEVQLVESGGGLVQAGGSLRLSCAASGITSKINDMGWYRQTPGNYREWVASITATGTTNYRDSVKGRFTISRDNAKSTVYLQMNSLKPEDTTVYYCNTFPPISNFWGQGTLVTVSSA,"% Lysis, T cell mediated MOLM-13 cell killing, cynomolgus primary T cells, E:T 10:1 [1]: 40%; EC50 (M), T cell mediated MOLM-13 cell killing, cynomolgus primary T cells, E:T 10:1 [1]: 2e-11 M; % Lysis, T cell mediated MOLM-13 cell killing, human primary T cells, E:T 10:1 [2]: 39%; EC50 (M), T cell mediated MOLM-13 cell killing, human primary T cells, E:T 10:1 [2]: 1.6e-10 M"
,T017000161 (VHH) VHH: EVQLVESGGGVVQPGGSLRLSCVASGEVHKINFLGWYRQAPGKEREKVAHISIGDQTDYADSAKGRFTISRDESKNMVYLQMNSLRPEDTALYFCRAFSRIYPYDYWGQGTLVTVSS,koff [3]: 0.00624 s⁻¹
0.000239 s⁻¹,T017000766 (VHH) VHH: EVQLVESGGGVVQPGGSLRLSCVASGYVHKINFYGWYRQAPGKEREKVAHISIGDQTDYADSAKGRFTISRDESKNMVYLQMNSLRPEDTALYFCRAMSKIYPYDYWGQGTLVTVSS,
0.00101 s⁻¹,T017000759 (VHH) VHH: EVQLVESGGGVVQPGGSLRLSCVASGSVHKINFYGWYRQAPGKEREKVAHISIGDQTDYADSAKGRFTISRDESKNMVYLQMNSLRPEDTALYFCRAFSKIWPYDWWGQGTLVTVSS,
0.000525 s⁻¹,T017000776 (VHH) VHH: EVQLVESGGGVVQPGGSLRLSCVASWSVHQINFYGWYRQAPGKEREKVAHISIGDQTDYADSAKGRFTISRDESKNMVYLQMNSLRPEDTALYFCRAMSKIWPYDYWGQGTLVTVSS,
0.00156 s⁻¹,T017000547 (VHH) VHH: EVQLVESGGGVVQPGGSLRLSCVASGAVHKLNFYGWYRQAPGKEREKVAHISIGDQTDYADSAKGRFTISRDESKNMVYLQMNSLRPEDTALYFCRAFSRIWPYDYWGQGTLVTVSS,
0.00019 s⁻¹,T017000593 (VHH) VHH: EVQLVESGGGVVQPGGSLRLSCVASGAVHKLNFYGWYRQAPGKEREKVAHISIGDQTDYADSAKGRFTISRDESKNMVYLQMNSLRPEDTALYFCRAMSKIWPYDYWGQGTLVTVSS,
0.000316 s⁻¹,T017000607 (VHH) VHH: EVQLVESGGGVVQPGGSLRLSCVASWDVHQINFYGWYRQAPGKEREKVAHISIGDQTDYADSAKGRFTISRDESKNMVYLQMNSLRPEDTALYFCRAFSKIWPYDYWGQGTLVTVSS,
0.00105 s⁻¹,T017000612 (VHH) VHH: EVQLVESGGGVVQPGGSLRLSCVASGDVHQLNFLGWYRQAPGKEREKVAHISIGDQTDYADSAKGRFTISRDESKNMVYLQMNSLRPEDTALYFCRALSKIYPYDYWGQGTLVTVSS,
0.0095 s⁻¹,T017000550 (VHH) VHH: EVQLVESGGGVVQPGGSLRLSCVASGSVHQINFLGWYRQAPGKEREKVAHISIGDQTDYADSAKGRFTISRDESKNMVYLQMNSLRPEDTALYFCRAMSRIYPYDWWGQGTLVTVSS,
0.00349 s⁻¹,T017000578 (VHH) VHH: EVQLVESGGGVVQPGGSLRLSCVASYDVHQLNFYGWYRQAPGKEREKVAHISIGDQTDYADSAKGRFTISRDESKNMVYLQMNSLRPEDTALYFCRAMSRIWPYDYWGQGTLVTVSS,
0.00114 s⁻¹,T017000609 (VHH) VHH: EVQLVESGGGVVQPGGSLRLSCVASGDVHQINFLGWYRQAPGKEREKVAHISIGDQTDYADSAKGRFTISRDESKNMVYLQMNSLRPEDTALYFCRAFSKIYPYDYWGQGTLVTVSS,
0.00151 s⁻¹,T017000539 (VHH) VHH: EVQLVESGGGVVQPGGSLRLSCVASGYVHKINFYGWYRQAPGKEREKVAHISIGDQTDYADSAKGRFTISRDESKNMVYLQMNSLRPEDTALYFCRAMSRIWPYDWWGQGTLVTVSS,
0.00373 s⁻¹,T017000750 (VHH) VHH: EVQLVESGGGVVQPGGSLRLSCVASYAVHQINFYGWYRQAPGKEREKVAHISIGDQTDYADSAKGRFTISRDESKNMVYLQMNSLRPEDTALYFCRAMSRIWPYDYWGQGTLVTVSS,
0.00116 s⁻¹,T017000614 (VHH) VHH: EVQLVESGGGVVQPGGSLRLSCVASGYVHKINFYGWYRQAPGKEREKVAHISIGDQTDYADSAKGRFTISRDESKNMVYLQMNSLRPEDTALYFCRALSRIWPYDYWGQGTLVTVSS,
0.00164 s⁻¹,T017000566 (VHH) VHH: EVQLVESGGGVVQPGGSLRLSCVASGYVHKLNFLGWYRQAPGKEREKVAHISIGDQTDYADSAKGRFTISRDESKNMVYLQMNSLRPEDTALYFCRAMSRIWPYDWWGQGTLVTVSS,
0.000472 s⁻¹,T017000608 (VHH) VHH: EVQLVESGGGVVQPGGSLRLSCVASWDVHKINFYGWYRQAPGKEREKVAHISIGDQTDYADSAKGRFTISRDESKNMVYLQMNSLRPEDTALYFCRAFSKIWPYDYWGQGTLVTVSS,
0.00391 s⁻¹,T017000742 (VHH) VHH: EVQLVESGGGVVQPGGSLRLSCVASGYVHQINFYGWYRQAPGKEREKVAHISIGDQTDYADSAKGRFTISRDESKNMVYLQMNSLRPEDTALYFCRAMSRIWPYDWWGQGTLVTVSS,
0.000857 s⁻¹,T017000610 (VHH) VHH: EVQLVESGGGVVQPGGSLRLSCVASGDVHQINFLGWYRQAPGKEREKVAHISIGDQTDYADSAKGRFTISRDESKNMVYLQMNSLRPEDTALYFCRALSKIYPYDYWGQGTLVTVSS,
0.000237 s⁻¹,T017000754 (VHH) VHH: EVQLVESGGGVVQPGGSLRLSCVASGYVHQINFLGWYRQAPGKEREKVAHISIGDQTDYADSAKGRFTISRDESKNMVYLQMNSLRPEDTALYFCRAMSKIWPYDYWGQGTLVTVSS,
0.000767 s⁻¹,T017000554 (VHH) VHH: EVQLVESGGGVVQPGGSLRLSCVASYDVHQINFLGWYRQAPGKEREKVAHISIGDQTDYADSAKGRFTISRDESKNMVYLQMNSLRPEDTALYFCRAMSKIYPYDYWGQGTLVTVSS,
0.000431 s⁻¹,T017000774 (VHH) VHH: EVQLVESGGGVVQPGGSLRLSCVASGDVHQINFYGWYRQAPGKEREKVAHISIGDQTDYADSAKGRFTISRDESKNMVYLQMNSLRPEDTALYFCRAMSKIWPYDYWGQGTLVTVSS,
0.000391 s⁻¹,T017000740 (VHH) VHH: EVQLVESGGGVVQPGGSLRLSCVASWDVHQLNFYGWYRQAPGKEREKVAHISIGDQTDYADSAKGRFTISRDESKNMVYLQMNSLRPEDTALYFCRAMSKIYPYDYWGQGTLVTVSS,
0.00115 s⁻¹,T017000589 (VHH) VHH: EVQLVESGGGVVQPGGSLRLSCVASGYVHKLNFYGWYRQAPGKEREKVAHISIGDQTDYADSAKGRFTISRDESKNMVYLQMNSLRPEDTALYFCRAMSRIWPYDWWGQGTLVTVSS,
0.00188 s⁻¹,T017000577 (VHH) VHH: EVQLVESGGGVVQPGGSLRLSCVASWDVHQINFLGWYRQAPGKEREKVAHISIGDQTDYADSAKGRFTISRDESKNMVYLQMNSLRPEDTALYFCRAMSRIYPYDYWGQGTLVTVSS,
0.000158 s⁻¹,T017000588 (VHH) VHH: EVQLVESGGGVVQPGGSLRLSCVASGAVHKINFYGWYRQAPGKEREKVAHISIGDQTDYADSAKGRFTISRDESKNMVYLQMNSLRPEDTALYFCRAMSKIWPYDYWGQGTLVTVSS,
0.00171 s⁻¹,T017000611 (VHH) VHH: EVQLVESGGGVVQPGGSLRLSCVASGDVHQINFYGWYRQAPGKEREKVAHISIGDQTDYADSAKGRFTISRDESKNMVYLQMNSLRPEDTALYFCRAFSKIYPYDYWGQGTLVTVSS,
0.000603 s⁻¹,T017000757 (VHH) VHH: EVQLVESGGGVVQPGGSLRLSCVASGAVHKLNFLGWYRQAPGKEREKVAHISIGDQTDYADSAKGRFTISRDESKNMVYLQMNSLRPEDTALYFCRAFSKIWPYDWWGQGTLVTVSS,

# Source: patent publication US20240092919A1 (Ablynx, published 2024)
